# Key:
# [1] = biological target: Env of the infectious molecular clone 246.F3-NL4.3+BN (HIV-1 (NL4.3) | HIV-1 (subtype AC, 246.F3))
# [2] = biological target: 246.F3 Env N276K (pseudovirus) (HIV-1 (subtype AC, 246.F3))
# [3] = biological target: 246.F3 Env, wild type (pseudovirus 246.F3-SG3 WT) (HIV-1 (subtype AC, 246.F3))
# [4] = biological target: 246.F3 Env N276D (pseudovirus made in Expi293F) (HIV-1 (subtype AC, 246.F3))
substance,measurement,setting,value
VRC01 (antibody),"IC50 of neutralisation of the 246.F3-NL4.3+BN virus stock, TZM-bl cells",[1],0.35 mg/L
same,"IC80 of neutralisation of the 246.F3-NL4.3+BN virus stock, TZM-bl cells",[1],0.85 mg/L
same,"IC50 of neutralisation of pseudovirus, TZM-bl cells (highest concentration tested 50 µg/mL)",[2],> 50 mg/L
same,"IC50 of neutralisation of pseudovirus, TZM-bl cells",[3],0.204 mg/L
same,"neutralisation of pseudovirus made in Expi293F cells, TZM-bl cells; fold change in sensitivity against wild-type 246.F3",[4],5 fold
